Test results taken from PMC3140568 (Journal of immunology (Baltimore, Md. : 1950), 2011).
Square brackets hold non-standard residues; d marks the D form. Ends that are not written are not given here. pS = N[C@@H](COP(=O)(O)O)C(=O)O

Molecular target: T1, TNF receptor-associated death domain protein, wild type (human, UniProt Q15628 1-312)
T1 sequence (looked up): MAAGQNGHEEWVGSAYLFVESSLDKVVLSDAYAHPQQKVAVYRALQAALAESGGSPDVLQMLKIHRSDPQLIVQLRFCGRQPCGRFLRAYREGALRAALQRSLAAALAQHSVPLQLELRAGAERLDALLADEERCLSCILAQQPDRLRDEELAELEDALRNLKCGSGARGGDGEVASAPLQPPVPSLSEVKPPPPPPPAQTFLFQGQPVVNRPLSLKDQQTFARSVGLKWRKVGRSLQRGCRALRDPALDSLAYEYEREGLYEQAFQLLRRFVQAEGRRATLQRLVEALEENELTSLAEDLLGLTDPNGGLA
Assay: peptide competition on an immuno-purified complex

B1: phosphorylated peptide containing the S381XXE motif of TNFR1 (position 375–395) (peptide, UniProt P19438 375-395, looked up)
peptide: VRRLGL[pS]DHEIDRLELQNGRC
**Q.** Does B1 bind?
**A.** Result: binds
